Laboratory results as given in the nanobody polyreactivity screen of Harvey et al. (2022).

Test: yeast display, Sf9 membrane polyspecificity reagent, FACS + sequencing; frameworks hold sequencing errors
In short: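 Genes from sorted yeast were amplified by colony PCR, read by MiSeq 2 × 250 sequencing and filtered on CDR length. These cells carried a synthetic nanobody library in Saccharomyces cerevisiae BJ5465 and were sorted by FACS into low and high (top ~1%) gates on anti-HA and streptavidin fluorescence. Polyreactivity is labelled according to the gate of origin.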

Sequence	polyreactivity (PSR sort gate)
QVQLVESGGGLVQAGGSLRLSCAASGSTFDINAMGWYRQAPGKERELVAAITDSGGSTHYADSVKGRFTISRDNAKNTVSLQMNSLKPEDTAVYYCNADDYLVYAGSHYGYWGQGTQVTVSS	low polyreactivity
QVQLVESGGGLVQAGGSLRLSCAASGFIIGRNAMGWYRQAPGKERELVAAMSTSGASTYYADSVKGRFTISRDNAKNTVYFQMNSLKPEDTAVYYCAARRPVWDGRGSGYDYWGQGTQVTVSS	low polyreactivity
QVQLVESGGGLVQAGGSLRLSCAASGSTFPWNAMGWHRQAPGKERELVAAISKSGGRTYYADSVKGRFTISRDNAKNTVYLQMNSLRPEDTAVYYCNALGSLDGRYGYWGQGTQVTVSS	high polyreactivity
QVQLVESGGGLVQAGGSLRLSCAASGRTFAQYAMGWYRQAPGKERELVAAITKRGGTTYYADSVKGRFTISRDNAKNTVYLQMNSLKPEDTAVYYCKAGGVVPSTYYWGQGTQVTVSS	high polyreactivity
QVQLVESGGGLVQAGGILRLSCAASGSIFEWYAMGWYRQAPGKEREFVAAINSGGSTYYADSVKGRFTISRDNAKNTVYLQMNSLKPEDTAVYYCNKVSYGYSTYGYWGQGTQVTVSS	low polyreactivity
QVQLVESGGGLVQAGGSLRLSCAASGSTVHYMGWYRQAPGKERELVAGISWSGGSTYYADSVKGRFTISRDNAKNTVYLQMNSLKPEDTAVYYCAADIKIRLYTTGDYWGQGSQVTVSS	low polyreactivity
QVQLVESGGGLVQAGGSLRLSCAASGFTFRRNVMGWYRQAPGKERELVAAIRGSDGSTYYADSVKGRFTISRDNAKNTVYLQMNSLKPEDTAVYYCNVVGKGLYRKMGYWGQGTQVTVSS	high polyreactivity
QVQLVESGGGLVPARGSLRLSCAASGSTFSDNAMGWYRQAPGKERELVAAINWSVGSTYYADSVKGRFTISRDNAKNTVYLQMNRRKPEDTAVYYCAGGYSLYESLVIFDYWGQGTQVTVSS	low polyreactivity
HVQHVESAVGLVQAGGRLRLSCAASGIIFRGNVMGWYIPAPGKERELVAAISGSGGRTYYADSVKGRFTISRDNAKNTVYLLMNSLKPEDTAVYYCAVSGTRTIWGISYRMYYWGQGTQVTVSS	high polyreactivity
QVQLVESGPGLVQAGGSLRLSSAASGLTFRWNGMGWYRQATGKERELVAAITGNAGSTYYADSVKGRFTISRDNAKNTVYLQMKSLNPEDTAVYYCAARLRYYYLVGYGYWGQGTQVTVSS	high polyreactivity
QVQLVESGGGLVQAGGSLRLSCAASGSIFDSNAMGWYRQAPGKERELVAAIDDSGATTYYADSVKGRFTISPDNAKNTVYLQLNSLKPEDTAVYYCAAETYTGSLAYYREYYYWGQGTQVTVSS	low polyreactivity
QVQLVESGGGLVQAGGSLRLSCAASGSIFTVYAIGWYRQAPGKEREFVADIDSGGTYYADSVKGRFTISRDNAKNTVYLQMNSLKPEDSAVYYCAALAALDYGQLYLADDDYWGQGTQVTVSS	low polyreactivity
QVQLVESGGGLVQAGGILRLSCAAYGSISYGYGMGWYRQPPGKERELVATLSGRAGSTYYADSVKGRFTISRDNAKYTVYLQMNSLKPEDTAVYYCAAKWWRLTWTAGYGGRCYGYWGQGSQVTVSS	low polyreactivity
QVQLVESGGGLVQAGGSLRLSCAASGSILQRYAMGWYRQAPGKERELVAAISTSGSSTYYADSVKGRFTISRDNAKNTVYLQMNSLKPEDTAVYYCAAKSRKFDYWGQGTQVTVSS	high polyreactivity
QVQLVESGGALVQAGGSLRLTCAASGRTLYLYAMGWYRQAPGKEREFVAAINSSGDSTYYADSVKGRFTISRDNAKNTVYLQMNSLNPEDTAVYYCNVAWFRHEYDYWGQGTQVTVSS	low polyreactivity
QVQLVESGGGLVQAGGSLRLSCAASGRTFSGYAMGWYRQAPGKEREFVAVITYSGGSTYYADSVKGRFTMSRVNAKNTVYLQMNSLKPEDTAVYYCNADYVIFYQLVDFDYWGQGTQVTVSS	low polyreactivity
QVQLVESRGRLVQAVGSLRLSCAASGFTFDSYPMGWYRHAPRKEMEFVAGITDLGDYTYYADSVKGRFTISRDTAKNTVFLQMKSLKPEDTEVYYCNDTTGYKHAWRCENGYWGQGTQVTVSS	low polyreactivity
QVQVVESGGGLVQAGGSLRLSCAASGRIFNYYAMGWYRPAPGKERELVATITGGGRTYYADSVKGRFTISRDNGMKTVYLQMNSLKPEDSAVYYCAAQYGGLSYRYDYWGQGTQVTVSS	high polyreactivity
QVQLVESGGGLVQAGGSLRLSCAASGFIFRRYVMGWTRQAPGKERELVAAISNGGGRTYYADSVKGRFTISRDNAKNTVYLQMNSLKPEDTAVYYCAAYPRGPLAPDYDYWGQGTQVTVSS	high polyreactivity
QVQHVESGGGLVQAGGSLRLSCAASGSILRSYAMGWFRQAPGKERELVAVINGSGGRTYYADSVKGRFTISRDNEKNTVYLQMISLKPEDTAVYYCNADPGGRYPRRGYAHEGDYWGQGTQVTVSS	low polyreactivity
QVQLVESGGGLVQAGGSLRLSCAASGFTFVYYVMGLYRQAPGKERELVAAINAGGGSTYYADSVKGRFTISRDNAKNTVYLQMNSLKPEDTAVYYCNARVRVRLGRNWSSYYYWGQGTQVTVST	high polyreactivity
QVQLVESGGRLVQAGGSLSLSCAASGFIFWSYAMGWYRPAPGKERELVAAISARGGSTYYADSVKGRFTISRDNAKNTVYLQMTSLKPEDTAVYYCATYPTYEYDYWGQGTQVTLSS	high polyreactivity

Sequence	polyreactivity (PSR sort gate)
QVQLVESGGGLVQAGGSLRLSWAASGRIFYGYTMGWYRQAPGKERELVASITIRGSRTYYADSVKGRCTISRDNAKNTVYLQINSLKPEDTAVYYCAADFVPARTVHRYDYWGQGTQVTVSS	low polyreactivity
QVQLVESGGGLVQAGGSLRLSCAASGRISVYNAMGWYRQAPGKERELVAAISRGSTNYADSVKGRFTISRDNAKNTVYLQMNSLKPEDTAVYYCAARSVSFPWRRYAGYDYWGQGTQVTVSS	high polyreactivity
QVQLVESGGGLVQAGGSLRLSCAASGRTFGKNAMGWYRQAPGKEREYVAAITSRGGSTYYADSVKGRFTISRDNAKNTVYLKMYSLKPDDTAFYFCNREYKRPSQRTEHYYWGQGTQVTVSS	low polyreactivity
QVQLVESGGGLVQAGGSLRLSCAASGRIFVRNAMGWYRQAPGKERELVAAITRTGASTYYADSVKGRFTISRDNAKNTVYLQMNSLKPEDTAVYYCNKEIVWHLWYESWGQGTQVTVSS	high polyreactivity
QVQLVESVGGLVQAGGSLRLSCAASGRIFLVYVMGWYRQAPGKERELVAAISASDGSTYYADSVKGRFTISRDNAKNTVYLQMNSLKPEDTAVYYCAEWGYSLDSNSYRELNYWGQGTQVTVSS	low polyreactivity
QVQLVESGGGLVQAGGSLRLSCAASGRTLGYYAMGWYRQAPGTERELVAAISGSGGITYYADSVKGRFTISRDNAKNTVYLQMNSLKPEDTAVYFCNVDPTAKWFNYDSWGQGTQVTVSS	low polyreactivity
QVQLVESGGGLVQAGGSLRLTCAASGLFYAMGWYRQAPGKQRELVAAISSVGSTNYADSVKGRFTISRDNAKNTVYLQMNSLKPEDTAVYYCAAYFYTYPVDRYGSYYWGQGTQLTVSS	low polyreactivity
QVQLVESGGGLVQAGGSLRLSCAASGFIFQYYAMGWFRQARGKERELVAAIRSGGSTYYADSVKGRFTISRDNAKNTFYLQLNSLKPEDTAVYFCGAKYRVFYGFDYWGQGTQVTVSS	high polyreactivity
QVQLVESGAGLVQAGGSLRISCAASVITFIPYAMGWYRQAPGKERELLASISDGGGTNYADSVKGRFTISRDNAKNTVYLQMNSLKTEDTAVYYCATDASTYAYYGGYYWGHGTQVTVSS	low polyreactivity
QVQLVESGGGLDQAGGSLRLSCAASGSIFANNAMGWYRQAPGKERELVATIRSGGTTNYADSVKGRFTISRDNAKNTVYLQMNSLKPEDTAVYYCAAETVSYYSKYDYWGQGTQVTVSS	low polyreactivity
QVQLVESGGGLVQAGGSLRLSCAASGYTFTGYAMGGYRQAPGKERECVAGITWRTGRTYYADSVKGRFTISRDNAKNTGYLQMNSLIPEDTAVYYCNKDHQRGYYWSYDYWGQGTQVTVSS	low polyreactivity
QVQLVESGGGLVQAGGSLPLSCAASGSIFDGYAMGWYSQAPGKDRELDAGISKSGGRTYYADSVKGRFTISRDNAKNTVYLQMNSLKPEDTAVYYCATPGIRYDRVYRYDYWGQGTQVTVSS	high polyreactivity
QVQLVESGGGLVQAGGSLRLSCAASGFTFRYYTMGWYRQAPGKERELVAAITASGSSTYYADSVKGRFTISRDNAKNTVYLQMNSLKPEDTAVYYSKALHFYGVGRYDHWGQGNQVTVSS	high polyreactivity
QVQLVESGGGLVQAGGSLRLSCAASGSIFGTYAMGWYRQAPGKEREFVAAISWSDGSTYYADSVKGRFTISRDNAKNTVYLQMNSLNPEDTAVYYCAVRRVGSIYIDRYIYVVADYDYWGQGTQVTVSS	low polyreactivity
QVHLVESGGGLVQAGGSLRLSCAASGSICNPYAMGWYRQAPGKEGELVAAINRGGTSTYYADSVKGRFTISRDNAKNNVYLQMNSLKPEDTAVYYCNADYPYYEDGDTVRDDYWGQGTQVTVSS	low polyreactivity
QVQLVESGGGLVQAGGSLRLSCAASGSTFYQYAMGWYRQAPGKERELVAAISKSGGSTYYADSVKGRFTISRDYSKNTVYLQMNSLKPDDTSVYYCATRWIKGRKMDYWGQGTQVTVSS	high polyreactivity
QVQLVESGGGLVQAGGSLRLSCAASGSIFPPNAMGWYRQAPGKERELVAGISQSGGSTYYADSVKGRFTISRDNAKNTVYLQMNSLKPEDTAVYYCARSFYSGRRYYYWGQGTQVTVSS	high polyreactivity
QVQLVESGGGLVQAGGSLRLSCAASGLTFWWYAMGWYRQAPGKERELVAAISSSGGSTYYADSVKGRFTISRDIAKNTVYLQMNSLKPEDTAVYYCAVASWDNYWDPYGYWGQGTQVTVSS	low polyreactivity
QVQLVESGGGLVQAGGSLRFSCAASGRIFPAYAMGWYRQAPGKEREWVDAISRRGGSTYYADTVKGRFTISRDNAKNTVYLQMNSLNPEDTAVYYCAKEVWDSLGYPHSGDYWGQGTQVTVSS	low polyreactivity
QVQLVESGGGLDQAGGSLRLSCAASGRIFVPNAMGWYRQAPGKERELVAAINWGGGSTYYADSVKGRFTISRDNAKNTVYLQMNSLKPEDTAVYYCAADHPYTIGVLPNQQFDYWGQGPQVTVSS	low polyreactivity
QVQLVESGGGLVQAGGSLRLSCAASGSTFNRYAMGWYRPAPGKERELVASISWGGGRTYYADSVKGRFTISRDNAKNTVDFQLNSLKPEDTAVYFCATDRYDRHYEVDYWGQGTQVTVSS	low polyreactivity
